{
  "source": "patent US20240239894A1",
  "about": "(AstraZeneca / MedImmune, published 2024)",
  "binders": {"B1": {"name": "E02-GL-SG3932 (antibody, human IgG1, kappa)", "heavy": "not shown", "light": "DIQMTQSPSSLSASVGDRVTITCRASQDIRNDVGWYQQKPGKAPKRLIYAASRLQSGVPSRFSGSGSGTEFTLTISSLQPEDFATYYCLQHNSYPRTFGQGTKVEIKRTVAAPSVFIFPPSDEQLKSGTASVVCLLNNFYPREAKVQWKVDNALQSGNSQESVTEQDSKDSTYSLSSTLTLSKADYEKHKVYACEVTHQGLSSPVTKSFNRGEC", "modifications": "SG3932 on native cysteines (DAR about 8 for the whole antibody); SG3932 (mal-PEG8-val-ala linker with TOP1i warhead) on native cysteines through a thiosuccinimide linkage, about 8 drugs per antibody", "notes": "also called E02-INT-SG3932; B7-H4 targeting TOP1i-ADC; copies: 2 + 2"}, "B2": {"name": "E02-INT (antibody intermediate of E02-GL-SG3932) (antibody, human IgG1, kappa)", "heavy": "not shown", "light": "B1 light", "notes": "also called E02-GL antibody; antibody intermediate E02-INT"}, "B3": {"name": "E02_GL Fab (Fab, V domains shown)", "VH": "QVQLQQWGAGLLKPSETLSLACTVYGGSFSGYYWNWIRQPPGKGLEWIGEINHSGSTSYNPSLKSRVTISVDTSKNQFSLKLSSVTAADTAVYYCARVLYNWNVDSWGQGTLVTVSS", "VL": "DIQMTQSPSSLSASVGDRVTITCRASQDIRNDVGWYQQKPGKAPKRLIYAASRLQSGVPSRFSGSGSGTEFTLTISSLQPEDFATYYCLQHNSYPRTFGQGTKVEIK", "notes": "Fab of E02-GL; also called EO2_GL Fab; E02-INT Fab"}, "B4": {"name": "E02-GLY-maia (antibody, human IgG1, kappa, V domains shown)", "VH": "B3 VH with N52Y", "VL": "DIQMTQSPSSLSASVGDRVTITCRASQDIRNDVGWYQQKPGKAPKRLIYAASRLQSGVPSRFSGSGSGTEFTLTISSLQPEDFATYYCLQHNSYPRTFGQGTKVEIKR", "notes": "Germlined with a Y substitution, Maia format"}, "B5": {"name": "E02-GL (ZY0EQD_E02, germlined) (antibody, V domains shown)", "VH": "B3 VH", "VL": "B3 VL", "notes": "AF647-labelled in flow cytometry; also called EQD-E02_GL; ZY0EQD-E02-GL"}, "B6": {"name": "E02-GLQ-maia (antibody, human IgG1, kappa, V domains shown)", "VH": "B3 VH with N52Q", "VL": "B4 VL", "notes": "Germlined with a Q substitution, Maia format"}},
  "key": {"[1]": {"biological_target": "T1, recombinant human B7-H4 (tag format not stated) (human, UniProt Q7Z7D3 25-259)", "T1 construct": "also called huB7-H4; human B7-H4 antigen", "T1 sequence": "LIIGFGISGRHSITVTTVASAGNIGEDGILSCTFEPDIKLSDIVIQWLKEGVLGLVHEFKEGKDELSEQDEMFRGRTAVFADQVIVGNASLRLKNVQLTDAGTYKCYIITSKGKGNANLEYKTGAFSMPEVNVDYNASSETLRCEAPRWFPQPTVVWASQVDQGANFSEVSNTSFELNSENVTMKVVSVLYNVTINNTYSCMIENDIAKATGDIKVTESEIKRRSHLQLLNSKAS", "test": "DELFIA-ELISA on immobilized recombinant human B7-H4"}, "[2]": {"biological_target": "T2, human B7-H4 on cells (human, UniProt Q7Z7D3 25-282)", "T2 construct": "On transfected/engineered cells (HEK293, CHO, HT29, Ad293) or endogenous on human cancer cell lines; also called huB7-H4; hB7-H4", "T2 sequence": "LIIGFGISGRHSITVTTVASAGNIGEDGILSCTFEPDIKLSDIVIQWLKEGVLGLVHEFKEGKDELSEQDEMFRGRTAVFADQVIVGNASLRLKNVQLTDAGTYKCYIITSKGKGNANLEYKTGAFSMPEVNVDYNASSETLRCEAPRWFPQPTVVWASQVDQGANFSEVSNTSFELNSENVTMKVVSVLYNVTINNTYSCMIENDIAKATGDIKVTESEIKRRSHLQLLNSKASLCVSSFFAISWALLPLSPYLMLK", "test": "flow cytometry on HT29-huB7-H4 Clone 4 cells, MFI (geometric mean)"}, "[3]": {"biological_target": "T2, human B7-H4 on cells", "test": "flow cytometry on MX-1 cells (endogenous human B7-H4), MFI (geometric mean)"}, "[4]": {"biological_target": "T1, recombinant human B7-H4 (tag format not …)", "test": "SPR, antibody capture"}, "[5]": {"biological_target": "T2, human B7-H4 on cells", "test": "flow cytometry on HT29-huB7-H4 Clone 26 cells, MFI (geometric mean)"}, "[6]": {"biological_target": "T2, human B7-H4 on cells", "test": "cell-based or functional assay"}, "[7]": {"biological_target": "human FcRn (human, UniProt P55899 24-297; P61769 21-119)", "sequence (P55899 24-297 limits assumed, chain 1 of 2)": "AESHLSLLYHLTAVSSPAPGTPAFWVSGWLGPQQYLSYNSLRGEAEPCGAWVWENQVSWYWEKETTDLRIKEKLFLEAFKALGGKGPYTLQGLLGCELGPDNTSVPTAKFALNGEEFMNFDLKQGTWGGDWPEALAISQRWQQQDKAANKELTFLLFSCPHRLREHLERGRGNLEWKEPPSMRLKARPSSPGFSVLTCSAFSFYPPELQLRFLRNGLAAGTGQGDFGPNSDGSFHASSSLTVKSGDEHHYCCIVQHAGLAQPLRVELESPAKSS", "sequence (P61769 21-119 limits assumed, chain 2 of 2)": "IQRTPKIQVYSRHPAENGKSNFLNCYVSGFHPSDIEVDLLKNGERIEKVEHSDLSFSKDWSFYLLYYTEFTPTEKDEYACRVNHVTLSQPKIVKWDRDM", "test": "SPR, steady state; steady state; human FcRn"}, "[8]": {"biological_target": "huFcγRI (human, UniProt P12314 16-288)", "sequence (P12314 16-288 limits assumed)": "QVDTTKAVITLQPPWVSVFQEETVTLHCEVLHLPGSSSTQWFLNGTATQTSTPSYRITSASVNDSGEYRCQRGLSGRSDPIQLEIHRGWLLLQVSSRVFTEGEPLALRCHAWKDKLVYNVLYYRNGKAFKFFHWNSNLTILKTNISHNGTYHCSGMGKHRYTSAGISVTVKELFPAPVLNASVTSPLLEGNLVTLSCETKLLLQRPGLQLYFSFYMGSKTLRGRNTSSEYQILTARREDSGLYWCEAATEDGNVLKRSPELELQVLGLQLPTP", "test": "SPR, equilibrium KD; equilibrium KD; huFcγRI"}, "[9]": {"biological_target": "T2, human B7-H4 on cells", "test": "flow cytometry on MDA-MB-468 cells (endogenous human B7-H4), MFI (geometric mean)"}, "[10]": {"biological_target": "T3, murine B7-H4 on cells (mouse, UniProt Q7TSP5 25-257)", "T3 construct": "whole, on cells; also called muB7-H4", "T3 sequence (looked up)": "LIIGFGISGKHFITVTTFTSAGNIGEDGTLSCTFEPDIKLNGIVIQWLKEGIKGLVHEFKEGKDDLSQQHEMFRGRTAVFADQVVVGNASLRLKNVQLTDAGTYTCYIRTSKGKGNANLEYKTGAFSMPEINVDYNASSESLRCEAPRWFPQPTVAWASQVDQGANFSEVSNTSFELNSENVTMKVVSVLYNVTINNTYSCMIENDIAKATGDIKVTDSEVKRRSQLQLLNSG", "test": "flow cytometry on HEK293 JI TREX cells stably expressing murine B7-H4, MFI (geometric mean)"}, "[11]": {"biological_target": "T4, cynomolgus monkey B7-H4 on cells (cynomolgus monkey, UniProt A0A2K5U6P5 25-282)", "T4 construct": "whole, on cells; On HEK 293 cells; also called cynoB7-H4", "T4 sequence": "T2 sequence with L53I, F242L, S252A", "test": "flow cytometry on HEK293 JI TREX cells stably expressing cynomolgus monkey B7-H4, MFI (geometric mean)"}, "[12]": {"biological_target": "T5, recombinant mouse B7-H4 (tag format not stated) (mouse, UniProt Q7TSP5 25-257, limits assumed)", "T5 construct": "FlagHis10 or FcHis6 in the commercial antibody ELISA; also called murine B7-H4 antigen", "T5 sequence (looked up)": "T3 sequence (looked up)", "test": "SPR"}, "[13]": {"biological_target": "T6, Human B7-H4 ECD-Flag-His10 (monomeric) (human, UniProt Q7Z7D3 25-259)", "T6 construct": "Minimally biotinylated for KinExA; also called hB7H4-ECD-Flag-His10; B7-H4-FLAG", "T6 sequence": "T1 sequence", "test": "KinExA 3200, Fab at 5, 10 or 45 nM, 25 C, N-curve analysis"}, "[14]": {"biological_target": "T5, recombinant mouse B7-H4 (tag format not …)", "test": "SPR", "remark": "listed apart in the source"}, "[15]": {"biological_target": "T1, recombinant human B7-H4 (tag format not …)", "test": "SPR, immobilized B7-H4"}, "[16]": {"biological_target": "T7, recombinant cynomolgus monkey B7-H4 (tag format not stated) (cynomolgus monkey, UniProt A0A2K5U6P5 25-259)", "T7 construct": "also called cyno B7-H4", "T7 sequence": "T1 sequence with L53I", "test": "SPR, immobilized B7-H4"}, "[17]": {"biological_target": "T6, Human B7-H4 ECD-Flag-His10 (monomeric)", "test": "KinExA 3200, Fab, N-curve analysis"}, "[18]": {"biological_target": "T5, recombinant mouse B7-H4 (tag format not …)", "test": "ELISA, Maia format mAb (GLY)"}, "[19]": {"biological_target": "T1, recombinant human B7-H4 (tag format not …)", "test": "ELISA, Maia format mAb (GLY)"}, "[20]": {"biological_target": "T8, Human B7-H4-Fc (Human B7H4 ECD, Fc_6His) (human)", "T8 construct": "also called FcHis6 tagged human B7-H4", "T8 sequence (Q7Z7D3 whole entry, looked up)": "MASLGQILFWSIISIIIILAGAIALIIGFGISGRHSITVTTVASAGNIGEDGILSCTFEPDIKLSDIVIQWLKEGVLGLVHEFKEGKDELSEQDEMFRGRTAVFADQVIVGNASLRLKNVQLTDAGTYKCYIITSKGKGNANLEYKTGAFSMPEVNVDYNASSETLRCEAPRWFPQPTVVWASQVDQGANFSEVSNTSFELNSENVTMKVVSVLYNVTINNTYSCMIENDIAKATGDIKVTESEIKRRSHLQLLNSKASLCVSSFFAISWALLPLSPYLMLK", "test": "ELISA on coated human B7H4/Fc, absorbance 450 nm, [IgG] 0.006 to 100 nM"}, "[21]": {"biological_target": "T5, recombinant mouse B7-H4 (tag format not …)", "test": "ELISA, Maia format mAb (GLQ)"}, "[22]": {"biological_target": "T1, recombinant human B7-H4 (tag format not …)", "test": "ELISA, Maia format mAb (GLQ)"}},
  "note": "Positions count from the first letter of the chain named.",
  "data": [
    {"binder": "B1", "values": [
      {"measurement": "EC50", "setting": "[1]", "value": 1.71, "unit": "nM"},
      {"measurement": "EC50 (read off the curve)", "setting": "[2]", "value": "~0.07", "unit": "µg/mL"},
      {"measurement": "EC50 (read off the curve)", "setting": "[3]", "value": "~0.1", "unit": "µg/mL"},
      {"measurement": "Kd", "setting": "[4]", "value": 29.3, "unit": "nM"},
      {"measurement": "koff", "setting": "[4]", "value": 0.0028, "unit": "s⁻¹"},
      {"measurement": "kon", "setting": "[4]", "value": 95500, "unit": "M⁻¹ s⁻¹"},
      {"measurement": "EC50 (read off the curve)", "setting": "[5]", "value": "~0.1", "unit": "µg/mL"},
      {"measurement": "IC50, cytotoxicity (CellTiter-Glo) on HT29-huB7-H4 Clone 26", "setting": "[6]", "value": "0.036 g/mL (as printed; probably µg/mL)"},
      {"measurement": "IC50, cytotoxicity (CellTiter-Glo) on MX-1", "setting": "[6]", "value": 0.029, "unit": "µg/mL"},
      {"measurement": "IC50, cytotoxicity (CellTiter-Glo, 6 days) on human B7-H4 transfected Ad293 cells", "setting": "[6]", "value": 0.0533, "unit": "µg/mL"},
      {"measurement": "Kd", "setting": "[7]", "value": 4360, "unit": "nM"},
      {"measurement": "Kd", "setting": "[8]", "value": 4.35, "unit": "nM"},
      {"measurement": "EC50 (read off the curve)", "setting": "[9]", "value": "~0.08", "unit": "µg/mL"}
    ]},
    {"binder": "B2", "values": [
      {"measurement": "EC50", "setting": "[1]", "value": 1.98, "unit": "nM"},
      {"measurement": "EC50 (read off the curve)", "setting": "[10]", "value": "~0.2", "unit": "µg/mL"},
      {"measurement": "EC50 (read off the curve)", "setting": "[2]", "value": "~0.05", "unit": "µg/mL"},
      {"measurement": "EC50 (read off the curve)", "setting": "[3]", "value": "~0.1", "unit": "µg/mL"},
      {"measurement": "Kd", "setting": "[4]", "value": 31.1, "unit": "nM"},
      {"measurement": "koff", "setting": "[4]", "value": 0.00292, "unit": "s⁻¹"},
      {"measurement": "kon", "setting": "[4]", "value": 93800, "unit": "M⁻¹ s⁻¹"},
      {"measurement": "EC50 (read off the curve)", "setting": "[5]", "value": "~0.07", "unit": "µg/mL"},
      {"measurement": "EC50 (read off the curve)", "setting": "[9]", "value": "~0.08", "unit": "µg/mL"},
      {"measurement": "EC50 (read off the curve)", "setting": "[11]", "value": "~0.4", "unit": "µg/mL"}
    ]},
    {"binder": "B3", "values": [
      {"measurement": "fold lower affinity than for human B7-H4 antigen", "setting": "[12]", "value": "~100", "unit": "fold"},
      {"measurement": "Kd", "setting": "[13]", "value": 1.2, "unit": "nM"},
      {"measurement": "Kd", "setting": "[14]", "value": 405, "unit": "nM"},
      {"measurement": "Kd", "setting": "[15]", "value": 3.7, "unit": "nM"},
      {"measurement": "Kd", "setting": "[16]", "value": 3.94, "unit": "nM"},
      {"measurement": "Kd", "setting": "[17]", "value": 1.21, "unit": "nM"}
    ]},
    {"binder": "B4", "values": [
      {"measurement": "binding result", "setting": "[18]", "value": "binds"},
      {"measurement": "binding result", "setting": "[19]", "value": "binds"}
    ]},
    {"binder": "B5", "values": [
      {"measurement": "EC50 (read off the curve)", "setting": "[20]", "value": "~0.5", "unit": "nM"}
    ]},
    {"binder": "B6", "values": [
      {"measurement": "binding result", "setting": "[21]", "value": "binds"},
      {"measurement": "binding result", "setting": "[22]", "value": "binds"}
    ]}
  ]
}
